Assay results taken from US20180371066A1 (C2N DIAGNOSTICS, published 2018).
One block for each binder: values may come before it.

Key:
[1] = biological target: T1, human tau (human, UniProt P10636 2-60); test: competition ELISA on plate-coated human tau against biotinylated HJ8.5; IC50 normalised to chimeric HJ8.5 (reference row); column C2N Run 1
T1 construct: also called soluble human tau; human tau protein

[2] = biological target: T1, human tau; test: competition ELISA on plate-coated human tau against biotinylated HJ8.5; IC50 normalised to chimeric HJ8.5 (reference row); column External
[3] = biological target: T1, human tau; test: competition ELISA on plate-coated human tau against biotinylated HJ8.5; IC50 normalised to chimeric HJ8.5 (reference row); column C2N Run 2
[4] = biological target: T2, recombinant human Tau-412 protein (human, UniProt P10636-7 1-412); test: SPR Biacore T200, mAb captured on Protein A, Tau-412 analyte, 1-to-1 model, chip A11/2
T2 construct: Analyte of the SPR study; also called human tau (1N4R, 412 amino acids)
Method: (§1) Kinetic data was obtained at a flow rate of 40 μL/min to minimize any potential mass transfer effects. Two repeats of the blank (no antigen) and the 2.5 nM concentration of the analyte were programmed into the kinetic run in order to check the stability of both the surface and analyte over the kinetic cycles. For the initial kinetic runs, 2-fold dilutions of Tau-412 from 40 nM to 0.156 nM were run. For kinetic analysis and on subsequent runs, an analyte range of 20 nM to 0.625 nM was selected. This range covered multiple analyte concentrations both above and below the reported KD.
(§2) The association phase was monitored for 500 seconds to allow some of the higher concentrations of analyte to reach steady state. In order to observe a sufficient signal decrease (>10%) during the dissociation phase of the kinetic cycle, dissociation was measured for 1200 seconds. As discussed in Section 5, the Fcs were allowed to stabilize for 600 seconds after each regeneration step. The signal from the reference channel Fc1 was subtracted from that of Fc2, Fc3 and Fc4.
(§3) The kinetic parameters for the interaction of Tau-412 with the 7 mAbs as measured using the Protein A capture system on the Biacore T200 are shown in Table F-2. To correct for differences in the capture level of the antibody between each binding cycle, a local Rₘₐₓ parameter was used in the 1-to-1 binding model. Kinetic analysis was performed in three independent runs using fresh preparations of Tau-412 and antibody. Run 1 and runs 2+3 used different vials of the antigen Tau-412; therefore the reported errors associated with the mean response probably represent variation in preparation of the analyte and differences in assay set-up and run. From run 1 to runs 2+3, the amount of antibody injected was adjusted to try to get closer to the target 300 RU capture levels.

[5] = biological target: T2, recombinant human Tau-412 protein; test: SPR Biacore T200, Protein A capture, mean of the Chimeric runs
Method: as §1, §2, §3

[6] = biological target: T2, recombinant human Tau-412 protein; test: SPR Biacore T200, mAb captured on Protein A, Tau-412 analyte, 1-to-1 model, chip A11/3
Method: as §1, §2, §3

[7] = biological target: T2, recombinant human Tau-412 protein; test: SPR Biacore T200, mAb captured on Protein A, Tau-412 analyte, 1-to-1 model, chip A11/1
Method: as §1, §2, §3
Target sequence in this assay (P10636 other isoform, or with tags, fused parts or gaps limits assumed): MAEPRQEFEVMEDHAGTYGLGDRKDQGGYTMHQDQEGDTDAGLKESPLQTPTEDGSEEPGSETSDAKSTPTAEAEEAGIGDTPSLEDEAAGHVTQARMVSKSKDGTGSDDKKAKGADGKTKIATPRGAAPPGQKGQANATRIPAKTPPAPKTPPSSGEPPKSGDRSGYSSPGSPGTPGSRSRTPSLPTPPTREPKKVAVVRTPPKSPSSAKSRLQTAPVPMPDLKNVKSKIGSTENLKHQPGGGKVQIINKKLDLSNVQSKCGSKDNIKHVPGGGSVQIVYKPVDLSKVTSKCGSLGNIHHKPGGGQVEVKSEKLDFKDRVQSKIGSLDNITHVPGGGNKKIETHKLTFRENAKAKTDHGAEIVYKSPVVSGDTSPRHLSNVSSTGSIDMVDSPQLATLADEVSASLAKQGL

[8] = biological target: T3, first 32 amino acids of human tau, expressed on yeast (human, UniProt P10636 1-32); test: yeast display, immunofluorescence
T3 construct: range 1-32; Yeast display scaffold not described
T3 chain (looked up): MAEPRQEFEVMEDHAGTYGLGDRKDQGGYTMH
Method: The epitope was mapped using yeast display. For this method, various peptides covering the sequence of human tau were expressed using by yeast. Binding of the HJ8.5 antibody to yeast in culture was measured by immunofluorescence. Binding to yeast, expressing variants of tau that included the first 34 amino acids was observed, but no binding, if the yeast only expressed the first 32 amino acids of tau.

[9] = biological target: T4, rhesus monkey tau (rhesus monkey, UniProt P57786 2-60); test: direct ELISA on 96-well plates coated with tau at varied concentration; OD 650nm
T4 construct: also called rhesus tau
T4 sequence: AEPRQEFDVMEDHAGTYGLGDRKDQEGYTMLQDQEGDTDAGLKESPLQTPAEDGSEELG
Method: FIG. 10 illustrates the binding results for different anti human tau antibodies to either human or rhesus monkey tau. Murine anti human tau antibodies HJ8.5 and HJ8.7 alongside humanized variant VH1/VK2 (also referred to as C₂N-8E12) were tested. […] In order to determine whether these amino acid difference between the two species of tau, impacts the ability of antibodies HJ8.5/C₂N-8E12 to bind the following experiment was performed. Binding of C₂N-8E12, HJ8.5 (murine precursor of C₂N-8E12), and HJ8.7 (murine anti-human tau antibody that binds to an epitope of tau where the human and rhesus amino acid sequence is 100% conserved) to human and rhesus tau by coating 96 well ELISA plates with either human or rhesus tau at various concentrations was measured. […] As expected, HJ8.7 binds to both human and rhesus tau.

[10] = biological target: T1, human tau; test: competition ELISA on plate-coated human tau against biotinylated HJ8.5; IC50 normalised to chimeric HJ8.5; column C2N Run 2
[11] = biological target: T1, human tau; test: competition ELISA on plate-coated human tau against biotinylated HJ8.5; IC50 normalised to chimeric HJ8.5; column C2N Run 1
[12] = biological target: T5, PEP_2875821; test: peptide array of 15-mers of human tau probed with the antibody; label LIN.AA (double alanine)
T5 peptide: RKDQGGYTMAADQEG

[13] = biological target: T6, PEP_2875819; test: as above
T6 peptide: DRKDQGGYTAAQDQE

[14] = biological target: T7, PEP_2875809; test: as above
T7 peptide: TYGLGDRKDAAGYTM

[15] = biological target: T8, PEP_2875827; test: as above
T8 peptide: QGGYTMHQDAAGDTD

[16] = biological target: T9, PEP_2875811; test: as above
T9 peptide: YGLGDRKDQAAYTMH

[17] = biological target: T10, PEP_2875823; test: as above
T10 peptide: KDQGGYTMHAAQEGD

[18] = biological target: T11, PEP_2875825; test: as above
T11 peptide: DQGGYTMHQAAEGDT

[19] = biological target: T12, PEP_2875817; test: as above
T12 peptide: GDRKDQGGYAAHQDQ

[20] = biological target: T1, human tau; test: competition ELISA on plate-coated human tau against biotinylated HJ8.5; IC50 normalised to chimeric HJ8.5; column External
[21] = biological target: T13, PEP_2875818; test: peptide array of 15-mers of human tau probed with the antibody; label LIN
T13 peptide: DRKDQGGYTMHQDQE

[22] = biological target: T14, PEP_2875824; test: as above
T14 peptide: DQGGYTMHQDQEGDT

[23] = biological target: T15, PEP_2875806; test: as above
T15 peptide: GTYGLGDRKDQGGYT

[24] = biological target: T16, PEP_2875822; test: as above
T16 peptide: KDQGGYTMHQDQEGD

[25] = biological target: T17, PEP_2875812; test: as above
T17 peptide: GLGDRKDQGGYTMHQ

[26] = biological target: T18, PEP_2875826; test: as above
T18 peptide: QGGYTMHQDQEGDTD

[27] = biological target: T19, PEP_2875804; test: as above
T19 peptide: AGTYGLGDRKDQGGY

[28] = biological target: T20, PEP_2875816; test: as above
T20 peptide: GDRKDQGGYTMHQDQ

[29] = biological target: T21, PEP_2875814; test: as above
T21 peptide: LGDRKDQGGYTMHQD

[30] = biological target: T22, PEP_2875808; test: as above
T22 peptide: TYGLGDRKDQGGYTM

[31] = biological target: T23, PEP_2875820; test: as above
T23 peptide: RKDQGGYTMHQDQEG

[32] = biological target: T24, PEP_2875810; test: as above
T24 peptide: YGLGDRKDQGGYTMH

T1 sequence (P10636 2-60 limits assumed): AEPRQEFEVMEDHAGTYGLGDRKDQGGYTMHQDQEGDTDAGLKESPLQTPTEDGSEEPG

IC50 (Relative to Chimera) [1]: 1 relative to Chimera | IC50 (Relative to Chimera) [2]: 1 relative to Chimera | IC50 (Relative to Chimera) [3]: 1 relative to Chimera | Kd [4]: 1.79 nM | koff [4]: 0.0013 s⁻¹ | kon [4]: 722000 M⁻¹ s⁻¹ | Kd [5]: 1.99 nM | koff [5]: 0.00143 s⁻¹ | kon [5]: 721000 M⁻¹ s⁻¹ | Kd [6]: 1.94 nM | koff [6]: 0.0014 s⁻¹ | kon [6]: 723000 M⁻¹ s⁻¹ | Kd [7]: 2.23 nM | koff [7]: 0.0016 s⁻¹ | kon [7]: 718000 M⁻¹ s⁻¹
B1: chimeric HJ8.5 monoclonal antibody (antibody, V domains shown)
VH: EVKVEESGGGLVQPGGSMKLSCVVSGFTFSNYWVNWVRQSPEKGLEWVAQIRLKSDNYATHYEESVKGRFTISRDDSKSSVYLQMNNLRAEDSGIYYCTNWEDYWGQGTTLTVSS
VL: DIVLTQSPASLAVSLGQRATISCRASQSVSTSRYSYIHWYQQKPGQPPKLLIKYASNLESGVPARFSGSGSGTDFTLNIHPLEEEDAATYYCHHSWEIPLTFGAGTKLELK
notes: also called chimera; chimeric antibody

binding result [8]: no binding | binding result [9]: no binding | IC50 (Relative to Chimera) [10]: 0.99 relative to Chimera | IC50 (Relative to Chimera) [11]: 0.79 relative to Chimera | Binding Signal [12]: 2710 | Binding Signal [13]: 2700 | Binding Signal [14]: 2810 | Binding Signal [15]: 427 | Binding Signal [16]: 1780 | Binding Signal [17]: 2710 | Binding Signal [18]: 2710 | Binding Signal [19]: 2640 | IC50 (Relative to Chimera) [20]: 1.07 relative to Chimera | Binding Signal [21]: 2690 | Binding Signal [22]: 2680 | Binding Signal [23]: 2640 | Binding Signal [24]: 2700 | Binding Signal [25]: 2820 | Binding Signal [26]: 399 | Binding Signal [27]: 427 | Binding Signal [28]: 2650 | Binding Signal [29]: 2840 | Binding Signal [30]: 2640 | Binding Signal [31]: 2700 | Binding Signal [32]: 2840
B2: murine anti-tau antibody HJ8.5 (antibody, V domains shown)
VH: B1 VH
VL: B1 VL
notes: Murine monoclonal antibody; also called parent antibody; murine parent
